Results as given in paper PMC8621594.

What was measured:
human C1s (human) [1] = biological target: human C1s (human)
human C1s (human) [2] = biological target: human C1s (human); remark: listed apart in the source

recombinant human C1 esterase inhibitor (rhC1INH) from Chinese hamster ovary (CHO) cells, sequence (P05155 23-500): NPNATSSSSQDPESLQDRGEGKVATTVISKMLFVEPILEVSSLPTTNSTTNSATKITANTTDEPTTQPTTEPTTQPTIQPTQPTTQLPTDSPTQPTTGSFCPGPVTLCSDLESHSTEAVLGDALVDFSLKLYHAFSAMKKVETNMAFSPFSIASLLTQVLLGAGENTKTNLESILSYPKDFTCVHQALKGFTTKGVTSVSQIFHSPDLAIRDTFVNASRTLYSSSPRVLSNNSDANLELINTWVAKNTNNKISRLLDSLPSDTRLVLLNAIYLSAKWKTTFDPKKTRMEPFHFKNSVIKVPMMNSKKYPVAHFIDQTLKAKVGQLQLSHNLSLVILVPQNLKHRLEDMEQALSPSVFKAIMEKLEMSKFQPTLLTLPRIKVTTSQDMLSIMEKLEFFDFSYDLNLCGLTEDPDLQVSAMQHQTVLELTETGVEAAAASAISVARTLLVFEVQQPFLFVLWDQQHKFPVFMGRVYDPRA

- Biological Activity, U/mL: inhibition of the C1s subunit, chromogenic method (TECHNOCHROM C1-INH Kit) (human C1s (human) [1]): 175 U/mL
- Specific Activity, U/mg: inhibition of the C1s subunit, chromogenic method (TECHNOCHROM C1-INH Kit) (human C1s (human) [1]): 9.5 U/mg
- IC50 of the inhibition of human serum complement (lysis of chicken erythrocytes), rhC1INH 0.0099 to 20.25 IU/mL; printed as activity against human C1-esterase in the blood serum (human C1s (human) [2]): 1.85 IU/mL
Substance: recombinant human C1 esterase inhibitor (rhC1INH) from Chinese hamster ovary (CHO) cells (from UniProt P05155 23-500) (natural protein)
